Results on 16 molecules are retold here after patent publication US20170044259A1 (published 2017).

Assay [1] addresses T1, human PD-1-Fc (R and D systems, Minneapolis, Minn.) (human, UniProt Q15116 25-167). Description: ELISA; lower left panel. (In an ELISA, binding on a coated surface is turned into a signal by an enzyme label.)
Assay [2] deals with human PD-1-His (R & D systems, Minneapolis, Minn.) (human, UniProt Q15116 25-167). Description: BLI. (In general: BLI is a label-free optical method that tracks binding on a fibre tip over time.)
Sequence of human PD-1-His (R & D systems, Minneapolis, Minn.) (Q15116 25-167): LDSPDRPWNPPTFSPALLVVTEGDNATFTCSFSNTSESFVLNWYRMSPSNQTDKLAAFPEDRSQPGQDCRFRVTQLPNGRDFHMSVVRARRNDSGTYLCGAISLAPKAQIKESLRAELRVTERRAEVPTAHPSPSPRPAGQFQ
Assay [3] deals with T1, human PD-1-Fc (R and D systems, …). Nature of the assay: inhibition ELISA; hPDL-2 Fc blockade.
Assay [4] shares this target. Description: inhibition ELISA; hPDL-1 Fc blockade.
For assay [5] the target is unchanged. Nature of the assay: inhibition ELISA; hPDL-1 Fc blockade. The source holds these as a separate data set.
Assay [6] has the same target. Description: inhibition ELISA; hPDL-2 Fc blockade. The source holds these as a separate data set.
The target is the same in assay [7]. Nature of the assay: inhibition ELISA; hPDL-1 Fc blockade. The source holds these as a separate data set.
The target is the same in assay [8]. Nature of the assay: inhibition ELISA; hPDL-2 Fc blockade. The source holds these as a separate data set.
Assay [9] shares this target. Nature of the assay: ELISA; upper left panel.
Assay [10] shares this target. Description: ELISA; lower right panel.
Assay [11] has the same target. Description: ELISA; upper right panel.

Where a chain is given by its changes, count along the chain named.

T1 sequence (Q15116 25-167): as above

B1: PD-1 1.5 PD019 2001 (antibody)
heavy: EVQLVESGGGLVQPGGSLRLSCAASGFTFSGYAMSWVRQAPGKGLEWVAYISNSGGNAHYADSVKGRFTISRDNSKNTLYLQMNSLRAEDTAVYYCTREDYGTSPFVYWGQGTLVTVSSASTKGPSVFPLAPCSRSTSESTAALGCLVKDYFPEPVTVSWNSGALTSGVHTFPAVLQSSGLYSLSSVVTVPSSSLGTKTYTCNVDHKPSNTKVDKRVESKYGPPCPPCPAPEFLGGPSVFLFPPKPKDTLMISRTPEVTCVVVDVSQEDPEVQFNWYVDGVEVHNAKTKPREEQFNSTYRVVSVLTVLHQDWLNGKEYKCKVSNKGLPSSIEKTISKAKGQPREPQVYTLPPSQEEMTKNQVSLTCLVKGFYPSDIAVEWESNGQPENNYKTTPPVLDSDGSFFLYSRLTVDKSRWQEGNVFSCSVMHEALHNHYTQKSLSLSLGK
light: QGQSGQGPCDQNPYFYPYVCHAGGGSSGGSISSGLLSGRSDNHGGGSDIQLTQSPSSLSASVGDRVTITCRASESVDAYGISFMNWFQQKPGKAPKLLIYAASNQGSGVPSRFSGSGSGTDFTLTISSMQPEDFATYYCQQSKDVPWTFGQGTKLEIKRTVAAPSVFIFPPSDEQLKSGTASVVCLLNNFYPREAKVQWKVDNALQSGNSQESVTEQDSKDSTYSLSSTLTLSKADYEKHKVYACEVTHQGLSSPVTKSFNRGEC
As for B1, in [1], the affinity, expressed as Kd, was 5.45 nM.

B2: C1.1 (antibody, V domains shown)
VH: EVQLVESGGGLVQPGGSLRLSCAASGFTFSNYAMSWVRQAPGKGLEWVAYISNGGGDTHYADSLKGRFTVSRDNSKNTLYLQMNSLRAEDTAVYYCARENYGTSPFVYWGQGTLVTVSS
VL: DIQLTQSPSSLSVSVGDRATITCRASESVDNYGISFMNWFQQKPGKAPKLLIYAASNQGSGVPSRFSGSGSGTDFTLTISSMQPEDFATYYCQQSKDVPWTFGQGTKLEIKR
Take B2: the Kd in assay [2] was determined as 12.4 nM. For the same molecule, the IC50 in [3] was 1.2 nM; in assay [4], 1.32 nM; in assay [5] it was 3.73 nM; in assay [6], 3.07 nM.

B3: A1.4 (antibody, V domains shown)
VH: B2 VH with N31G, G54S, D57N, T58A, L64V, V70I, A97T, N100D
VL: B2 VL with V13A, A19V, N31S
Consider B3, for which the figures for the IC50 in assay [7] and in assay [8] were 1.92 nM and 1.29 nM, respectively.

B4: A1.2 (antibody, V domains shown)
VH: B2 VH with N31G, G54S, D57N, T58A, L64V, V70I, A97T, N100D
VL: B2 VL with V13A, A19V, N31Q
Turning to B4, the IC50 in assay [7] turned out to be 1.55 nM; in assay [8], 1.01 nM.

B5: A1.0 (antibody, V domains shown)
VH: B2 VH with N31G, G54S, D57N, T58A, L64V, V70I, A97T, N100D
VL: B2 VL with V13A, A19V
Consider B5, for which the IC50 in [7] amounted to 1.85 nM; in [8], 1.04 nM.

B6: PD-1 1.5 PD006 2001 (antibody)
heavy: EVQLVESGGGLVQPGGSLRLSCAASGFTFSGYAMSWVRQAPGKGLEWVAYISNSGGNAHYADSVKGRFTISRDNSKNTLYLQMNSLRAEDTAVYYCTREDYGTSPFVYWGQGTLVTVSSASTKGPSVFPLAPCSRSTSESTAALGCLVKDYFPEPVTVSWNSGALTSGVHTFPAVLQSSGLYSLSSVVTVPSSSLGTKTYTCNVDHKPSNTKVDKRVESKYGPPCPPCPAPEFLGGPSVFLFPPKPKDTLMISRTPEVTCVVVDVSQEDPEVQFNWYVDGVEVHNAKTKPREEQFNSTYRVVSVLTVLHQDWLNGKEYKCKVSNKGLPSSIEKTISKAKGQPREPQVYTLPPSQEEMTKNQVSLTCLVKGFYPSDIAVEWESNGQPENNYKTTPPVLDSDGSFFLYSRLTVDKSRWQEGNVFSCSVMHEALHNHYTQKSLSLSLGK
light: QGQSGQGAPRCYMFASYCKSQYGGGSSGGSISSGLLSGRSDNHGGGSDIQLTQSPSSLSASVGDRVTITCRASESVDAYGISFMNWFQQKPGKAPKLLIYAASNQGSGVPSRFSGSGSGTDFTLTISSMQPEDFATYYCQQSKDVPWTFGQGTKLEIKRTVAAPSVFIFPPSDEQLKSGTASVVCLLNNFYPREAKVQWKVDNALQSGNSQESVTEQDSKDSTYSLSSTLTLSKADYEKHKVYACEVTHQGLSSPVTKSFNRGEC
In turn, B6 showed a Kd in [9] of 5.66 nM.

B7: PD-1 1.5 PD028 2001 (antibody)
heavy: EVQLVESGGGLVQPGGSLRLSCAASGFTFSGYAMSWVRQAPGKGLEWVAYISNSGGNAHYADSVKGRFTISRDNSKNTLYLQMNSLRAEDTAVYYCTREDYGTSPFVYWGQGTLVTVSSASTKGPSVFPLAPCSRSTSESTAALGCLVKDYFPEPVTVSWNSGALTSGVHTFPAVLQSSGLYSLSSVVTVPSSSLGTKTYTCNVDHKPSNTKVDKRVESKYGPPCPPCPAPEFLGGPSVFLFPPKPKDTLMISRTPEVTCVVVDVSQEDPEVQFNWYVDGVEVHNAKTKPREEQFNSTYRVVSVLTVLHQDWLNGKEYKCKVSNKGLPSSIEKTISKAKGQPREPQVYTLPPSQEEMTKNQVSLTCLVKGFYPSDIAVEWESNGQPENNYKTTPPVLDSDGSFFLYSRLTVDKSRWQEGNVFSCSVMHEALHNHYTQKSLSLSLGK
light: B6 light with A8F, P9Q, R10P, Y12L, Y17S, K19F, S20T, Q21S, Y22K
B7 had a Kd in assay [10] of 4.97 nM.

B8: D4 (antibody, V domains shown)
VH: EVQLVESGGGLVQPGGSLRLSCAHSGFSFSSYDMSWVRQAPGKGLEWVATISGGGRYTYYADSVKGRFTISRDNSKNTLYLQMNSLRAEDTAVYYCASNYYGFDYWGQGTLLTVSS
VL: DIQMTQSPSSLSASVGDRVTITCKASQDVGTAVAWYQQKPGKAPKLLIYWASTRHTGVPSRFSGSGSGTDFTLTISSVQPEDFATYYCQQYSSYPWTFGQGTKLEIKR
In assay [2], B8 showed a Kd of 5.52 nM. For the same molecule, the 50% inhibitory concentration (IC50) in [3] was 1.95 nM; in assay [4] it was 2.72 nM.

B9: A1.5 PD34 2001 (antibody)
heavy: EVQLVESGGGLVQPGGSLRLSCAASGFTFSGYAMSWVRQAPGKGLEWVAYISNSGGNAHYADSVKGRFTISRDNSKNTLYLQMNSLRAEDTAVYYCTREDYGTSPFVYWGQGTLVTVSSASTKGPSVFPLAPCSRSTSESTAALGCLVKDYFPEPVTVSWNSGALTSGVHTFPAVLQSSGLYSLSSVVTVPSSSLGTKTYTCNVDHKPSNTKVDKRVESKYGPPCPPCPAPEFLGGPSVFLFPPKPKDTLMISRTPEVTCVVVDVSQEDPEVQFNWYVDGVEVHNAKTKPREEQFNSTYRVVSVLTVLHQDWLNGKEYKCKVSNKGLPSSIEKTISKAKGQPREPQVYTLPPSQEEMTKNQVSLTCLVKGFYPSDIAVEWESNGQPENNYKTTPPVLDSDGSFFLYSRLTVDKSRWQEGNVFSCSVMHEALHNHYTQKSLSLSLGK
light: QGQSGQGTSYCSIEHYPCNTHHGGGSSGGSISSGLLSGRSDNHGGGSDIQLTQSPSSLSASVGDRVTITCRASESVDAYGISFMNWFQQKPGKAPKLLIYAASNQGSGVPSRFSGSGSGTDFTLTISSMQPEDFATYYCQQSKDVPWTFGQGTKLEIKRTVAAPSVFIFPPSDEQLKSGTASVVCLLNNFYPREAKVQWKVDNALQSGNSQESVTEQDSKDSTYSLSSTLTLSKADYEKHKVYACEVTHQGLSSPVTKSFNRGEC
As to B9, the Kd is 8.4 nM in [1], 9.37 nM in assay [9], 8.12 nM in assay [10] and 7.3 nM in assay [11].

B10: Bb2 (antibody, V domains shown)
VH: QVQLVQSGAEVKKPGASVKMSCKASGYTFTDYYMDWVRQAPGQGLEWIGYIYPKNGGSSYAQKFQGRATLTVDKSTSTAYMELSSLRSEDTAVYYCARKVVATDYWGQGTLLTVSS
VL: DIQMTQSPSSLSASVGDRVTMTCKSSQSLLYSSNQKNYLAWYQQKPGKAPKLLIFWASIRESGVPSRFSGSGSGTDFTLTISSVQPEDFATYYCQQSDSYPWTFGQGTKLEIKR
In assay [2], B10 showed a Kd of 5.04 nM. Besides, the values for the IC50 in assay [3] and in assay [4] were 1.83 nM and 1.67 nM, respectively.

B11: Ba2 (antibody, V domains shown)
VH: B10 VH with K74T
VL: B10 VL
For the molecule B11, the results for the IC50 in assay [3] and in assay [4] were 1.2 nM and 2.2 nM, respectively.

B12: PD-1 1.5 PD012 2001 (antibody)
heavy: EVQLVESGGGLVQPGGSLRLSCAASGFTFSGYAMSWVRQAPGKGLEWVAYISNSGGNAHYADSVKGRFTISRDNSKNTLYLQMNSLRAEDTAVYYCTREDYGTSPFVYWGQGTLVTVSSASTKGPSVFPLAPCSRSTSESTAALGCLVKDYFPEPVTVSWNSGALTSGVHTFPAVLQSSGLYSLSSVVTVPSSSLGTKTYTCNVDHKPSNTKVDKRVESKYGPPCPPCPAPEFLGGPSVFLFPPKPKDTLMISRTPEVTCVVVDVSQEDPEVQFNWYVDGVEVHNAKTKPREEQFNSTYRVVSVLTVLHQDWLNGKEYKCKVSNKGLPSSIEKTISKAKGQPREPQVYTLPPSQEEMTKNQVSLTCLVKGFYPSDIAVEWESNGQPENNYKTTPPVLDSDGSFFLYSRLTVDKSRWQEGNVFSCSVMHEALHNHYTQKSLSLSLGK
light: QGQSGQGNWLDCQFYSECSVYGGGGSSGGSISSGLLSGRSDNHGGGSDIQLTQSPSSLSASVGDRVTITCRASESVDAYGISFMNWFQQKPGKAPKLLIYAASNQGSGVPSRFSGSGSGTDFTLTISSMQPEDFATYYCQQSKDVPWTFGQGTKLEIKRTVAAPSVFIFPPSDEQLKSGTASVVCLLNNFYPREAKVQWKVDNALQSGNSQESVTEQDSKDSTYSLSSTLTLSKADYEKHKVYACEVTHQGLSSPVTKSFNRGEC
The molecule B12 displayed a Kd in [11] of 1.74 nM.

B13: PD-1 1.5 PD009 2001 (antibody)
heavy: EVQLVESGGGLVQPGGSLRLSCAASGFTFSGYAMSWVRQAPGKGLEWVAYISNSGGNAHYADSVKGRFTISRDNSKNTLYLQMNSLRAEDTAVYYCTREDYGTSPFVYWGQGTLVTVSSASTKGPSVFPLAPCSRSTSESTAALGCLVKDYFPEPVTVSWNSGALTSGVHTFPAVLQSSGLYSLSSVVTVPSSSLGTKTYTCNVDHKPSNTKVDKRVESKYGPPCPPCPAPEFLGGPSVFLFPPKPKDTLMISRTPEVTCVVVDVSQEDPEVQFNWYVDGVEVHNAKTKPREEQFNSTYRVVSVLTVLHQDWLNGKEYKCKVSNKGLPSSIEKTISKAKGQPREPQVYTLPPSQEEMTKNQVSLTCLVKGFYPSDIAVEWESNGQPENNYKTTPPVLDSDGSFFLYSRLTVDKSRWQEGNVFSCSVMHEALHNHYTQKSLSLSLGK
light: QGQSGQGAPRTCYTYQCSSFYTGGGSSGGSISSGLLSGRSDNHGGGSDIQLTQSPSSLSASVGDRVTITCRASESVDAYGISFMNWFQQKPGKAPKLLIYAASNQGSGVPSRFSGSGSGTDFTLTISSMQPEDFATYYCQQSKDVPWTFGQGTKLEIKRTVAAPSVFIFPPSDEQLKSGTASVVCLLNNFYPREAKVQWKVDNALQSGNSQESVTEQDSKDSTYSLSSTLTLSKADYEKHKVYACEVTHQGLSSPVTKSFNRGEC
B13 returned a Kd in assay [9] of 0.399 nM.

B14: PD-1 1.5 PD026 2001 (antibody)
heavy: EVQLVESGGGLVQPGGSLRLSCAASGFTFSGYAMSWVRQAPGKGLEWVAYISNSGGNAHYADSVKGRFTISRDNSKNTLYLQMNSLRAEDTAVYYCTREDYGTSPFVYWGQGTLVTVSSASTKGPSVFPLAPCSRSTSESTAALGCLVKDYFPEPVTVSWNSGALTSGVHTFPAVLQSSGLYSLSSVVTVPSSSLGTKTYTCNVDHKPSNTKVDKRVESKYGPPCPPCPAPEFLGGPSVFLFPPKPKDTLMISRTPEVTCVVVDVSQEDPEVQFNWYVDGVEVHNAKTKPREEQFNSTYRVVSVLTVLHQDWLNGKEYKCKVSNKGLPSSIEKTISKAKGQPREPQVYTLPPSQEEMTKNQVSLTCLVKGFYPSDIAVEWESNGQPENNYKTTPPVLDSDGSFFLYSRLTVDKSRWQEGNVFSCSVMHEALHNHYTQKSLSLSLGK
light: QGQSGQGGMCSAYAYSSKLCTIGGGSSGGSISSGLLSGRSDNHGGGSDIQLTQSPSSLSASVGDRVTITCRASESVDAYGISFMNWFQQKPGKAPKLLIYAASNQGSGVPSRFSGSGSGTDFTLTISSMQPEDFATYYCQQSKDVPWTFGQGTKLEIKRTVAAPSVFIFPPSDEQLKSGTASVVCLLNNFYPREAKVQWKVDNALQSGNSQESVTEQDSKDSTYSLSSTLTLSKADYEKHKVYACEVTHQGLSSPVTKSFNRGEC
The molecule B14 displayed a Kd in [10] of 3.75 nM.

B15: PD-1 1.5 PD025 2001 (antibody)
heavy: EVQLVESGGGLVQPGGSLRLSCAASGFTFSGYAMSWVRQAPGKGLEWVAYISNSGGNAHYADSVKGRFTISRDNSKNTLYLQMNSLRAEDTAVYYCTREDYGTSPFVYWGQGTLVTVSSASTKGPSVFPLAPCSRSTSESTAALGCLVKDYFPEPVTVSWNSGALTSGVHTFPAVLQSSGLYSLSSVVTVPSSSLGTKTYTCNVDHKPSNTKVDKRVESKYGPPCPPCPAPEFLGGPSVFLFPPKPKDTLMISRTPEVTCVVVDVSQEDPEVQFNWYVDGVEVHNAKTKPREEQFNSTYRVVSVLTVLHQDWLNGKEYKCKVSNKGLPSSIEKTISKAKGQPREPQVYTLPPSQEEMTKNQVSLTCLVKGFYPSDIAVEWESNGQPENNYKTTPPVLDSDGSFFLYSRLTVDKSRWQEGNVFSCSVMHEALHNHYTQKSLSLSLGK
light: B14 light with G8S, M9R, A12V, A14E, Y15V, K18G, T21D, I22W
Molecule B15 registered a Kd in assay [1] of 5.22 nM.

B16: PD-1 1.5 PD017 2001 (antibody)
heavy: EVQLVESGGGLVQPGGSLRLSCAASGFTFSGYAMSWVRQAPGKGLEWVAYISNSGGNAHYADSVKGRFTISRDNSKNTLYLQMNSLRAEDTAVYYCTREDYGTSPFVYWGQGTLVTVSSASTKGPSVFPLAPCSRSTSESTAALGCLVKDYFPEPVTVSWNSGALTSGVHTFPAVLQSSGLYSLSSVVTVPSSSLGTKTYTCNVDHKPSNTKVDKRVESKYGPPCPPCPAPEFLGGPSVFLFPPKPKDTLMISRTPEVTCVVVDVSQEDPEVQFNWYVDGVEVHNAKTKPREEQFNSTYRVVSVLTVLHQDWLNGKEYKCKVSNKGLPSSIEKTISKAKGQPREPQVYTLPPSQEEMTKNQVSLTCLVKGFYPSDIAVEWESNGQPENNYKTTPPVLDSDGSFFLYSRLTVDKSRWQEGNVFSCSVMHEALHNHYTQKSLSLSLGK
light: B14 light with G8T, M9T, S11N, A12L, A14Q, Y15Q, K18M, L19F, T21N, I22A
As to B16, the Kd in [11] is 4.36 nM.

As usually defined, the Kd is a measure of binding affinity in units of concentration. High values mean a looser complex, low ones a tighter complex. As usually defined, the IC50 is the midpoint of a concentration-inhibition curve. Read a high IC50 as weaker potency in that assay.
